Measured values: publication PMC9645763, “CK2-mediated phosphorylation of SUZ12 promotes PRC2 function by stabilizing enzyme active site” (Nature Communications, 2022)

Molecular target: T1, EZH1 of the truncated minimal complex used for crystallization (human, UniProt Q92800 1-187; Q92800 230-491; Q92800 497-747, residues 353–413 of EZH1 were deleted)
T1 construct: human EZH1, residues 1-187; linker that replaces residues 188–229 of EZH1; human EZH1, residues 230-491 with 353–413 deleted; linker that replaces residues 492–496 of EZH1; human EZH1, residues 497-747; In the crystal joined on one chain with m3 through an LVPRGS linker; source: S. cerevisiae CB010, purified (IgG-sepharose, TEV cleavage, Superdex 200); not shown: His6, N-terminal, …
Test: crystal structure; truncated minimal EZH1–EED–SUZ12(VEFS) complex at 10 mg/ml pre-incubated with 0.5 mM H3K27M peptide, 0.5 mM H3K27me3 peptide and 1 mM SAM; 10% PEG3350, 100 mM ammonium sulfate, 50 mM HEPES pH 6.8; 3.0 Å
Details: both partners purified

T1 sequence (Q92800 other isoform, or with tags, fused parts or gaps with the stated changes): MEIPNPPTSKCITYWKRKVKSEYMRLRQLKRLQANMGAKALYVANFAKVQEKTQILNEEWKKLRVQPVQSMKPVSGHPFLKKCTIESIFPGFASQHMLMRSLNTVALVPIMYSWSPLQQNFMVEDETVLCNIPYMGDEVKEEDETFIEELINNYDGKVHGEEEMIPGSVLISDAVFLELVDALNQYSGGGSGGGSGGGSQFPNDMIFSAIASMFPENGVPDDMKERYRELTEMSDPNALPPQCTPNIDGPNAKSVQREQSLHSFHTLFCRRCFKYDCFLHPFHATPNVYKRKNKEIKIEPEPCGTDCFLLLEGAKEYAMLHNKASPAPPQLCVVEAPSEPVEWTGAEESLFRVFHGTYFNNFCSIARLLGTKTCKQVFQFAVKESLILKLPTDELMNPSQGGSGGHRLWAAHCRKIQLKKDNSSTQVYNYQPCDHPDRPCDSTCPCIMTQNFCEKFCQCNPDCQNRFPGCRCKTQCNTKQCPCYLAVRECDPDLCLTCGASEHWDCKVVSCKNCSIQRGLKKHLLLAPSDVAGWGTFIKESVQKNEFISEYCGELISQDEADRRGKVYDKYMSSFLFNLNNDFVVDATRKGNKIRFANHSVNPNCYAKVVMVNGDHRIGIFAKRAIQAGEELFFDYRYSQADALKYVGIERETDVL

B1: EED of the truncated minimal complex used for crystallization (domain or fragment)
chain: not shown
notes: human EED, residues 1–77 replaced by a StrepII tag; source: S. cerevisiae CB010, co-expressed, purified with the complex (IgG-sepharose, TEV cleavage, Superdex 200); not shown: StrepII, N-terminal, kept
- binding result: binds
